Data as given in IntAct's records for PubMed 31515488.

B1: Mothers against decapentaplegic homolog 4 (Homo sapiens), Q13485 (parent)
chain: MDNMSITNTPTSNDACLSIVHSLMCHRQGGESETFAKRAIESLVKKLKEKKDELDSLITAITTNGAHPSKCVTIQRTLDGRLQVAGRKGFPHVIYARLWRWPDLHKNELKHVKYCQYAFDLKCDSVCVNPYHYERVVSPGIDLSGLTLQSNAPSSMMVKDEYVHDFEGQPSLSTEGHSIQTIQHPPSNRASTETYSTPALLAPSESNATSTANFPNIPVASTSQPASILGGSHSEGLLQIASGPQPGQQQNGFTGQPATYHHNSTTTWTGSRTAPYTPNLPHHQNGHLQHHPPMPPHPGHYWPVHNELAFQPPISNHPAPEYWCSIAYFEMDVQVGETFKVPSSCPIVTVDGYVDPSGGDRFCLGQLSNVHRTEAIERARLHIGKGVQLECKGEGDVWVRCLSDHAVFVQSYYLDREAGRAPGDAVHKIYPSAYIKVFDLRQCHRQMQQQAATAQAAAAAQAAAVAGNIPGPGSVGGIAPAISLSAAAGIGVDDLRRLCILRMSFVKGWGPDYPRQSIKETPCWIEIHLHRALQLLDEVLHTMPIADPQPLD
B2: Peroxisomal membrane protein 11C (Homo sapiens), Q96HA9 (parent)
chain: MASLSGLASALESYRGRDRLIRVLGYCCQLVGGVLVEQCPARSEVGTRLLVVSTQLSHCRTILRLFDDLAMFVYTKQYGLGAQEEDAFVRCVSVLGNLADQLYYPCEHVAWAADARVLHVDSSRWWTLSTTLWALSLLLGVARSLWMLLKLRQRLRSPTAPFTSPLPRGKRRAMEAQMQSEALSLLSNLADLANAVHWLPRGVLWAGRFPPWLVGLMGTISSILSMYQAARAGGQAEATTP
partner: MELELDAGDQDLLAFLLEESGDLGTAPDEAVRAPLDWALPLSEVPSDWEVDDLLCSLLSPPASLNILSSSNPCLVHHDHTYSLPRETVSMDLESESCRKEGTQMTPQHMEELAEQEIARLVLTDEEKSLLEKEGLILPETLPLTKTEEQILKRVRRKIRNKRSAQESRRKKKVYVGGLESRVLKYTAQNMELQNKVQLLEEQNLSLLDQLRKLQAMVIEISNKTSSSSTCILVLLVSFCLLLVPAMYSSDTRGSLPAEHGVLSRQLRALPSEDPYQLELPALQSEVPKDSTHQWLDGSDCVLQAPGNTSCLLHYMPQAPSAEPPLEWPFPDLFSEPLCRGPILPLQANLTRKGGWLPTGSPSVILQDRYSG
B3: Zinc finger protein RFP (Homo sapiens), P14373 (parent)
chain: MASGSVAECLQQETTCPVCLQYFAEPMMLDCGHNICCACLARCWGTAETNVSCPQCRETFPQRHMRPNRHLANVTQLVKQLRTERPSGPGGEMGVCEKHREPLKLYCEEDQMPICVVCDRSREHRGHSVLPLEEAVEGFKEQIQNQLDHLKRVKDLKKRRRAQGEQARAELLSLTQMEREKIVWEFEQLYHSLKEHEYRLLARLEELDLAIYNSINGAITQFSCNISHLSSLIAQLEEKQQQPTRELLQDIGDTLSRAERIRIPEPWITPPDLQEKIHIFAQKCLFLTESLKQFTEKMQSDMEKIQELREAQLYSVDVTLDPDTAYPSLILSDNLRQVRYSYLQQDLPDNPERFNLFPCVLGSPCFIAGRHYWEVEVGDKAKWTIGVCEDSVCRKGGVTSAPQNGFWAVSLWYGKEYWALTSPMTALPLRTPLQRVGIFLDYDAGEVSFYNVTERCHTFTFSHATFCGPVRPYFSLSYSGGKSAAPLIICPMSGIDGFSGHVGNHGHSMETSP
partner: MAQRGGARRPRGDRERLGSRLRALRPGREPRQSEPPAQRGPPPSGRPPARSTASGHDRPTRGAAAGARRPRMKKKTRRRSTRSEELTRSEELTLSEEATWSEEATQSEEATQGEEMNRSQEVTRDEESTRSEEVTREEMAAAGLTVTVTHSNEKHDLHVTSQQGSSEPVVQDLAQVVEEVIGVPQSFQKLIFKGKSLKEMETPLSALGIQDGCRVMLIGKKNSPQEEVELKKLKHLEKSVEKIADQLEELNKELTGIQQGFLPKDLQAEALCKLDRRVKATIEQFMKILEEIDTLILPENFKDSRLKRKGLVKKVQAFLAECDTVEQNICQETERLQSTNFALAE
B4: Zinc finger protein Aiolos (Homo sapiens), Q9UKT9 (parent)
chain: MEDIQTNAELKSTQEQSVPAESAAVLNDYSLTKSHEMENVDSGEGPANEDEDIGDDSMKVKDEYSERDENVLKSEPMGNAEEPEIPYSYSREYNEYENIKLERHVVSFDSSRPTSGKMNCDVCGLSCISFNVLMVHKRSHTGERPFQCNQCGASFTQKGNLLRHIKLHTGEKPFKCHLCNYACQRRDALTGHLRTHSVEKPYKCEFCGRSYKQRSSLEEHKERCRTFLQSTDPGDTASAEARHIKAEMGSERALVLDRLASNVAKRKSSMPQKFIGEKRHCFDVNYNSSYMYEKESELIQTRMMDQAINNAISYLGAEALRPLVQTPPAPTSEMVPVISSMYPIALTRAEMSNGAPQELEKKSIHLPEKSVPSERGLSPNNSGHDSTDTDSNHEERQNHIYQQNHMVLSRARNGMPLLKEVPRSYELLKPPPICPRDSVKVINKEGEVMDVYRCDHCRVLFLDYVMFTIHMGCHGFRDPFECNMCGYRSHDRYEFSSHIARGEHRALLK
partner: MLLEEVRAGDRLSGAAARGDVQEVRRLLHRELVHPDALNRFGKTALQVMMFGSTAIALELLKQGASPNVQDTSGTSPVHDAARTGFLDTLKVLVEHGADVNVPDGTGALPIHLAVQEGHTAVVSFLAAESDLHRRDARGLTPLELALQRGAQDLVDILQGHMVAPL
B5: cGMP-dependent protein kinase 1 (Homo sapiens), Q13976 (parent)
chain: MSELEEDFAKILMLKEERIKELEKRLSEKEEEIQELKRKLHKCQSVLPVPSTHIGPRTTRAQGISAEPQTYRSFHDLRQAFRKFTKSERSKDLIKEAILDNDFMKNLELSQIQEIVDCMYPVEYGKDSCIIKEGDVGSLVYVMEDGKVEVTKEGVKLCTMGPGKVFGELAILYNCTRTATVKTLVNVKLWAIDRQCFQTIMMRTGLIKHTEYMEFLKSVPTFQSLPEEILSKLADVLEETHYENGEYIIRQGARGDTFFIISKGTVNVTREDSPSEDPVFLRTLGKGDWFGEKALQGEDVRTANVIAAEAVTCLVIDRDSFKHLIGGLDDVSNKAYEDAEAKAKYEAEAAFFANLKLSDFNIIDTLGVGGFGRVELVQLKSEESKTFAMKILKKRHIVDTRQQEHIRSEKQIMQGAHSDFIVRLYRTFKDSKYLYMLMEACLGGELWTILRDRGSFEDSTTRFYTACVVEAFAYLHSKGIIYRDLKPENLILDHRGYAKLVDFGFAKKIGFGKKTWTFCGTPEYVAPEIILNKGHDISADYWSLGILMYELLTGSPPFSGPDPMKTYNIILRGIDMIEFPKKIAKNAANLIKKLCRDNPSERLGNLKNGVKDIQKHKWFEGFNWEGLRKGTLTPPIIPSVASPTDTSNFDSFPEDNDEPPPDDNSGWDIDF

Variants of: B1
Conditions: with ews_human EWSR1, Q01844
Sequence of ews_human EWSR1, Q01844 (Q01844 whole entry): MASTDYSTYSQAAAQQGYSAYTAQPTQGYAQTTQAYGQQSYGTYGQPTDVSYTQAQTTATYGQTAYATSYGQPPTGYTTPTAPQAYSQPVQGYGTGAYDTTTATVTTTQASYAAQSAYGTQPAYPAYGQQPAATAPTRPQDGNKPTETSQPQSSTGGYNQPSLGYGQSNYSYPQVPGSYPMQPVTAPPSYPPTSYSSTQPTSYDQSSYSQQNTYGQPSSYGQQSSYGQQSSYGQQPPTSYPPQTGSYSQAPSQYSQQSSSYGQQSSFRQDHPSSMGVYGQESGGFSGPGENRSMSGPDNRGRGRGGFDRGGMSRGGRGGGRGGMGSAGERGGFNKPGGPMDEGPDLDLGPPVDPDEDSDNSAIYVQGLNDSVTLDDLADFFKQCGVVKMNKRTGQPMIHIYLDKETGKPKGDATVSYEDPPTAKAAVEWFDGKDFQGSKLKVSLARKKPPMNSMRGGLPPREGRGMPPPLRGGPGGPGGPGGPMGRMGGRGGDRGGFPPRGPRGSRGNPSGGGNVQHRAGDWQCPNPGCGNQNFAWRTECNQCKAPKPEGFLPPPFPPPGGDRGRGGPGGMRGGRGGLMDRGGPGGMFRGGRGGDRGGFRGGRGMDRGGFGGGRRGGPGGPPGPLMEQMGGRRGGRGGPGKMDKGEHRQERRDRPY
R76I was tested, and the “effect of a mutation on the interaction” value was “with no effect”. With T174N the “effect of a mutation on the interaction” value was “with no effect”. In the case of R189C, the “effect of a mutation on the interaction” value is reported as “with no effect”. For D355N, the “effect of a mutation on the interaction” value was “with no effect”. R531W was tested, and the “effect of a mutation on the interaction” value was “with no effect”. With L533F the “effect of a mutation on the interaction” value was “with no effect”. With V539G the “effect of a mutation on the interaction” value was “disrupting interaction strength”.

Variants of: B1
Conditions: with smad3_human SMAD3, P84022
Sequence of smad3_human SMAD3, P84022 (P84022 whole entry, looked up): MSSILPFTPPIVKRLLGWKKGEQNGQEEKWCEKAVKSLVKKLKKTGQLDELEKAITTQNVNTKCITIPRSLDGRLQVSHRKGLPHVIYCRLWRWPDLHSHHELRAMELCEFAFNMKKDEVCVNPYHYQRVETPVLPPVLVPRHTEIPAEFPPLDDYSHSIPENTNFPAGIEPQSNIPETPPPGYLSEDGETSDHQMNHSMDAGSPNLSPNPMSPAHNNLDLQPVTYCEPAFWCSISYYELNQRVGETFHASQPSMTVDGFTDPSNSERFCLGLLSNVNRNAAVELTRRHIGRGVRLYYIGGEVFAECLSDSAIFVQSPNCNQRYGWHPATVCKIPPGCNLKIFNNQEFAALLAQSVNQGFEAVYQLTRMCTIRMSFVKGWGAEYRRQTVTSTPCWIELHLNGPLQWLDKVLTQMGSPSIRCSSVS
R76I was tested, and the “effect of a mutation on the interaction” value was “with no effect”. In the case of T174N, the “effect of a mutation on the interaction” value is reported as “with no effect”. For R189C, the “effect of a mutation on the interaction” value was “with no effect”. In the case of D355N, the “effect of a mutation on the interaction” value is reported as “disrupting interaction strength”. R531W was tested, and the “effect of a mutation on the interaction” value was “disrupting interaction strength”. L533F was tested, and the “effect of a mutation on the interaction” value was “disrupting interaction strength”. With V539G the “effect of a mutation on the interaction” value was “disrupting interaction strength”. With M294V the “effect of a mutation on the interaction” value was “with no effect”. For V407L, the “effect of a mutation on the interaction” value was “with no effect”.

Variants of: B2
Conditions: with creb3_human CREB3, O43889
With C91W the “effect of a mutation on the interaction” value was “with no effect”.

Variants of: B3
Conditions: with bag1_human BAG1, Q99933
In the case of N355S, the “effect of a mutation on the interaction” value is reported as “with no effect”.

Variants of: B4
Conditions: with cdn2d_human CDKN2D
For A24V, the “effect of a mutation on the interaction” value was “with no effect”. With N119D the “effect of a mutation on the interaction” value was “with no effect”.

Variants of: B4
Conditions: with cdn2d_human CDKN2D
Remark: another data set of the same source
For I338M, the “effect of a mutation on the interaction” value was “with no effect”.

Variants of: B5
Conditions: with rbtn2_human LMO2, P25791
Sequence of rbtn2_human LMO2, P25791 (P25791 whole entry): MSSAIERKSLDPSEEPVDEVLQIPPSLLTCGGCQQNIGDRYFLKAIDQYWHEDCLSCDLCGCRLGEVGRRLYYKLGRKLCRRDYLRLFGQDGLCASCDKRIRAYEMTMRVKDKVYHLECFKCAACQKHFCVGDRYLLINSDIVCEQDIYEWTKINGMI
In the case of N267S, the “effect of a mutation on the interaction” value is reported as “with no effect”.

Variants of: B5
Conditions: with zn646_human ZNF646, O15015
Sequence of zn646_human ZNF646, O15015 (O15015 whole entry): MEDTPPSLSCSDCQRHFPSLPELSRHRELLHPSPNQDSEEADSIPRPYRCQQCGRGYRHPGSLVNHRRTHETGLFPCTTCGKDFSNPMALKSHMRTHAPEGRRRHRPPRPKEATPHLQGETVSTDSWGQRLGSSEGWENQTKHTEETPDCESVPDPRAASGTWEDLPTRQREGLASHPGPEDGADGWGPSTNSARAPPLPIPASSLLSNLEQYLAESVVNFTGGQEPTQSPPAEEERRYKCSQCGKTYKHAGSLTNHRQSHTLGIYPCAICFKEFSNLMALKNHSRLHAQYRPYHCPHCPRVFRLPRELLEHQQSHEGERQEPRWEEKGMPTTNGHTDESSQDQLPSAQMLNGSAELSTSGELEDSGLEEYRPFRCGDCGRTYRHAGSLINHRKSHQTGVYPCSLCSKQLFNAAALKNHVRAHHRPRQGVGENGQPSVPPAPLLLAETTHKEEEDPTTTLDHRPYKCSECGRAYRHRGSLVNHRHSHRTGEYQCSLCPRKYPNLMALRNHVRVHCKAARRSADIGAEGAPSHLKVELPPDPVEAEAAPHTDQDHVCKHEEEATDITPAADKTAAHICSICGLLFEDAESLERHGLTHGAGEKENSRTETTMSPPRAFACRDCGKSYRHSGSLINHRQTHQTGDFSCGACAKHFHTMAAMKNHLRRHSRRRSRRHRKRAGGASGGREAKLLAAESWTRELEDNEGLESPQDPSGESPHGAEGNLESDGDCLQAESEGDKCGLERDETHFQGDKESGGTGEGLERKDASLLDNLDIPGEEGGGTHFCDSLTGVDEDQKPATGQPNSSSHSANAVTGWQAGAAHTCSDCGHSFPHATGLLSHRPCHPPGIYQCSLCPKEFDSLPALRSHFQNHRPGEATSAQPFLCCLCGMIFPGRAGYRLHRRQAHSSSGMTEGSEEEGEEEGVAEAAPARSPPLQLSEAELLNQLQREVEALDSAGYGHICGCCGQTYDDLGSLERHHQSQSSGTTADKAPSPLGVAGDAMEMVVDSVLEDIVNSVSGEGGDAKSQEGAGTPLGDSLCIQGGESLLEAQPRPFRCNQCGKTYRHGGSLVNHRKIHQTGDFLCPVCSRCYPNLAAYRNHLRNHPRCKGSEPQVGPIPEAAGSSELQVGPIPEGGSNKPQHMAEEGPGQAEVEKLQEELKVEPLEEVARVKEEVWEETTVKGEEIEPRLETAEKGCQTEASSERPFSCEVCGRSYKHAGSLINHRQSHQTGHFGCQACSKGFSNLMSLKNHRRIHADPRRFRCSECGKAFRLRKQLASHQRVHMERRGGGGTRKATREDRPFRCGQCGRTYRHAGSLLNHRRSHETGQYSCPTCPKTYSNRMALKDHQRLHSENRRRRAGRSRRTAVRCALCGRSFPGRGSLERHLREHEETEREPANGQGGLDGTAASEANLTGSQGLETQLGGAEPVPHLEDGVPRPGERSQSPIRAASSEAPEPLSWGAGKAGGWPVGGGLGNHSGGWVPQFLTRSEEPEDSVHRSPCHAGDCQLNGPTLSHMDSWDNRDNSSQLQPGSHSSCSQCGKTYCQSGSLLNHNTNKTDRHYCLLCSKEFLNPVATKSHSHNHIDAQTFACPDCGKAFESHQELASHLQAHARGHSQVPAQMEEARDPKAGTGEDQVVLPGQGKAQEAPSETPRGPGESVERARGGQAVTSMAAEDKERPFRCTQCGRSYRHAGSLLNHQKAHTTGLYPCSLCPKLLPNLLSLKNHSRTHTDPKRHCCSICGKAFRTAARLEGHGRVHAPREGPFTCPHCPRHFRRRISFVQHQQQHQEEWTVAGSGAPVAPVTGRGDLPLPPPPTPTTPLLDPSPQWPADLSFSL
With N267S the “effect of a mutation on the interaction” value was “with no effect”.
